Assay results reported in patent US5889173A, “DNA encoding multifunctional neurothrophic factors” (priority 1996, dated 1999).

Key:
[1] = test system: dissociated E8 chick sympathetic neurons; assay: Survival of dissociated E8 chick sympathetic neurons; assay type: cell-based; conditions: 2 ng/ml
Description: (§1) Dissociated neurons from chick E8 sympathetic and nodose ganglia were preplated on plastic for 2 hr and then cultured in 96 well-plates coated with poly-L-ornithine and laminin at a density of 800-1000 cells/well. Serial dilutions of conditioned media containing equivalent amounts of recombinant proteins were added at the time of plating and neuronal survival was determined after 36-48 hr by phase contrast microscopy, scoring the number of surviving neurons in the entire well.

TrkB and TrkA = conditions: literature; cited from earlier work
[2] = test system: dissociated E8 chick nodose neurons; assay: Survival of dissociated E8 chick nodose ganglion neurons; assay type: cell-based; conditions: for Nodose neurons rescued (survival): saturating concentrations (20-50 ng/ml)
Description: as §1

TrkA [3] = assay: Competitive TrkA receptor binding: displacement of 125I-NGF from rtrkA-3T3 cells; conditions: 125I-NGF displacement, relative binding from IC50 versus wt NGF
Description: NIH3T3 fibroblasts expressing TrkA, TrkB or TrkC were used at 2 to 1-33 10^6 cells/ml. […] All components were added at the same time and the cells were collected by centrifugation after equilibrium was reached (90-120 minutes incubation). Cell pellets were then counted in a gamma counter. […] Nonspecific binding was measured in a parallel incubation to which 300 to 1000-fold molar excess of unlabelled purified factor was added.

[4] = test system: E8 chick sympathetic ganglia; assay: Neurite outgrowth from explanted E8 chick sympathetic ganglia; assay type: cell-based; conditions: for Biological Activity % of wild type (neurite outgrowth, sympathetic ganglia): explants of embryonic sympathetic ganglia, relative to wt NGF
Description: Fibre outgrowth was scored on a semiquantitative scale in biological units (BU) by comparison to standards obtained with purified mouse NGF, for which 1 BU is equivalent to approximately 5ng/ml. The concentration of each protein that gave 0.6 BU in this scale was determined, and used to calculate the relative activity compared to that obtained with wt NGF.

TrkB [5] = assay: Competitive TrkB receptor binding: displacement of 125I-BDNF from rtrkB-3T3 cells; conditions: for Receptor Binding % of wild type (TrkB): rtrkB-3T3 cells, 125I-BDNF displacement, relative binding from IC50 versus wt BDNF
Description: Purified mouse NGF and BDNF were labeled with ^125 I by the lactoperoxidase method to an average specific activity of 1×10^8cpm/μg. For the labeling of BDNF, the modifications described by Rodriguez-Tebar et al. ([Rodriguez-Tebar, 1992]) were used. NIH3T3 fibroblasts expressing TrkA, TrkB or TrkC were used at 2 to 1-33 10^6 cells/ml. Steady state binding was measured in competition assays performed at 4° C. using 1.5×10^-9 M ^125 I-BDNF and serial dilutions of conditioned media containing equivalent amounts of wt or mutated NGF protein. All components were added at the same time and the cells were collected by centrifugation after equilibrium was reached (90-120 minutes incubation). Cell pellets were then counted in a gamma counter. […] Nonspecific binding was measured in a parallel incubation to which 300 to 1000-fold molar excess of unlabelled purified factor was added. All results were corrected for this nonspecific binding, which was less than 10% (for NGF) or 30% (for BDNF) of total binding. The concentration of each chimeric, mutant and wild type molecule that gave 50% binding (IC50) was determined, and relative binding was calculated using the relationship:(mutant IC50 /wild type IC50)×100.

TrkB [6] = assay: Tyrosine phosphorylation of TrkB receptors in rtrkB-3T3 cells; assay type: cell-based
Description: (§2) Plates were incubated 15 minutes at 4° C. after which insoluble material was removed by centrifugation. Cell lysates were normalized for protein content before immunoprecipitation. […] After 2 hr at 4° C., immunocomplexes were collected with Protein A-Sepharose (Pharmacia, Sweden), washed in lysis buffer and boiled for 5 minutes before SDS/PAGE. After electrophoresis, gels were blotted to nitrocellulose membranes, reacted with anti-phosphotyrosine monoclonal antibody 4G10 (UBI, New York) and developed with the ECL Western Detection System (Amersham, UK). Appropriately exposed autoradiograms of phosphotyrosine blots were used for densitometric scanning.

TrkA [7] = assay: Tyrosine phosphorylation of TrkA receptors in rtrkA-3T3 cells; assay type: cell-based; conditions: 100 ng/ml
Description: as §2

TrkC = assay: Tyrosine phosphorylation of TrkC receptors in Trk-expressing cells; assay type: cell-based; conditions: 100 ng/ml
Description: A confluent 10 cm plate containing about 10^7 rtrk-3T3 or rtrkB-3T3 cells was treated for 5 minutes at 37° C. with wt, chimeric or mutant factors and subsequently lysed with 1 ml of ice-cold buffer containing 1% NP40, 20 mM Tris pH 8.0, 137 mM NaCl, 2 mM EDTA, 10% glycerol, 1 mM PMSF, 0.15 U/ml aprotinin, 20 μM leupeptine and 1 mM Na orthovanadate. Plates were incubated 15 minutes at 4° C. after which insoluble material was removed by centrifugation. Cell lysates were normalized for protein content before immunoprecipitation. Trk immunoprecipitation was performed by incubating lysates with 1 μl of anti-TrkB polyclonal antiserum 443 ([Soppet, 1991]) which recognizes TrkA, TrkB and TrkC. After 2 hr at 4° C., immunocomplexes were collected with Protein A-Sepharose (Pharmacia, Sweden), washed in lysis buffer and boiled for 5 minutes before SDS/PAGE. After electrophoresis, gels were blotted to nitrocellulose membranes, reacted with anti-phosphotyrosine monoclonal antibody 4G10 (UBI, New York) and developed with the ECL Western Detection System (Amersham, UK). Appropriately exposed autoradiograms of phosphotyrosine blots were used for densitometric scanning.

## wild-type NT-3: recombinant wild-type rat neurotrophin-3 (SEQ ID NO. 3) produced in COS cells [reference compound]
[1]
  Survival of dissociated sympathetic neurons (in words): no survival
TrkB and TrkA
  Efficiency to mediate biological effects through TrkB and TrkA lower than BDNF or NGF: about 100 fold
[2]
  Nodose neurons rescued (survival): 25%
TrkA [3]
  Receptor Binding % of wild type (TrkA): about 3 % of wild type
[4]
  Biological activity, neurite outgrowth from sympathetic ganglia (in words): only a marginal effect

B1: wt BDNF: recombinant wild-type brain-derived neurotrophic factor (SEQ ID NO. 2) produced in COS cells (protein)
chain: HSDPARRGELSVCDSISEWVTAADKKTAVDMSGGTVTVLEKVPVSKGQLKQYFYETKCNPMGYTKEGCRGIDKRHWSNQCRTTQSYVRALTMDSKKRIGWRFIRIDTSCVCTLTIKRGR
TrkB [5]
  Receptor Binding % of wild type (TrkB): 100 % of wild type
TrkB [6]; dose-response, densitometric scanning of phosphotyrosine blots, rtrkB-3T3 cells
  EC50 of TrkB receptor phosphorylation: 5 ng/mL
[2]
  Nodose neurons rescued (survival): 40%
TrkA [3]
  Receptor Binding % of wild type (TrkA): < 0,2 % of wild type
[4]
  Biological Activity % of wild type (neurite outgrowth, sympathetic ganglia): < 0,2 % of wild type

B2: wt NGF: recombinant wild-type rat nerve growth factor (SEQ ID NO. 1) produced in COS cells (protein)
chain: SSTHPVFHMGEFSVCDSVSVWVGDKTTATDIKGKEVTVLGEVNINNSVFKQYFFETKCRAPNPVESGCRGIDSKHWSNYCTTTHTFVKALTTDDKQAAWRFIRIDTACVCVLSRKAARRG
TrkB [5]
  Receptor Binding % of wild type (TrkB): < 0,2 % of wild type
[2]
  Survival of nodose neurons (in words): failed to rescue neurons
TrkA [3]
  Receptor Binding % of wild type (TrkA): 100 % of wild type
[4]
  Biological Activity % of wild type (neurite outgrowth, sympathetic ganglia): 100 % of wild type

B3: PNT-1: NT-3 with variable region V replaced from BDNF and amino terminus (residues 3-9) replaced from NGF (protein)
chain: B2 chain
TrkA [7]
  TrkA tyrosine phosphorylation / activation (in words): efficient tyrosine phosphorylation
[1]
  Survival of dissociated sympathetic neurons (in words): correlated with survival of dissociated sympathetic neurons
TrkB [5]
  TrkB receptor binding (in words): not changed
TrkC
  TrkC tyrosine phosphorylation (in words): efficient tyrosine phosphorylation
TrkB [6]; 100 ng/ml
  TrkB tyrosine phosphorylation / activation (in words): efficient tyrosine phosphorylation
[2]; saturating concentrations
  Increase of nodose neuron survival compared to NT-3: ~2 fold
[2]
  Nodose neurons rescued (survival): 45%
TrkA [3]
  Receptor Binding % of wild type (TrkA): ~50 % of wild type
[4]
  Biological activity, neurite outgrowth from sympathetic ganglia (in words): efficiently stimulated neurite outgrowth
[4]; dose-response curves
  Potency in neurite outgrowth from sympathetic ganglia lower than wild type NGF: 15 fold
